Test results from patent US20100105569A1 (AbbVie / Abbott, published 2010).

Assays:
[1] = target: T1, human IL-12 (biotinylated) (human, UniProt P29459 23-219; P29460 23-328, biotinylated (site and subunit not stated)); experiment: mRNA-scFv selected with 50 nM IL-12, bead capture, % of input 35S counts recovered
T1 construct: also called hIL-12
T1 sequence (looked up) 1: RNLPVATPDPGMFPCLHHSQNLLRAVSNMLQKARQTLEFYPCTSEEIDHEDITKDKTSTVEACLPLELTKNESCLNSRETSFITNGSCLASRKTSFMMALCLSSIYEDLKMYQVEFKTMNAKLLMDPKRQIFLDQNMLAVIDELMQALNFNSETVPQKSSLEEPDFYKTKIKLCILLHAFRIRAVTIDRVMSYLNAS
T1 sequence (looked up) 2: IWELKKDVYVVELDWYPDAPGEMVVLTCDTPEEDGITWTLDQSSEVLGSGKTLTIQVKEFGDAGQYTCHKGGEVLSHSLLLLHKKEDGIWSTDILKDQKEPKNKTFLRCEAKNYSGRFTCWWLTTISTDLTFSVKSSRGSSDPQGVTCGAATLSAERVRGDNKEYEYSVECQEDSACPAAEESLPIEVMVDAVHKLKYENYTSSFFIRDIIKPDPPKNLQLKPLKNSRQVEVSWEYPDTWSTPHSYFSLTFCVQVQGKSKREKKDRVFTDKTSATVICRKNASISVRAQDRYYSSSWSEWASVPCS

[2] = target: biotinylated HA tag peptide; experiment: free scFv selected with 50 nM HA; translated with PDI
[3] = target: biotinylated HA tag peptide; experiment: free scFv selected with 50 nM HA; translated without PDI
[4] = target: biotinylated HA tag peptide; experiment: mRNA-scFv (ligated protein) selected with 50 nM HA; translated with PDI
[5] = target: biotinylated HA tag peptide; experiment: mRNA-scFv selected with 50 nM HA; PDI: Yes, RT before selection with DTT
[6] = target: biotinylated HA tag peptide; experiment: mRNA-scFv (ligated protein) selected with 50 nM HA; translated without PDI
[7] = target: biotinylated HA tag peptide; experiment: mRNA-scFv selected with 50 nM HA; PDI: Yes, RT before selection without DTT
[8] = target: biotinylated HA tag peptide; experiment: mRNA-scFv selected with 50 nM HA; PDI: No, RT: No (same value as the 33rd table, row 10, column 5)
[9] = target: biotinylated HA tag peptide; experiment: mRNA-scFv selected with 50 nM HA; PDI: Yes, RT: No (same value as the 33rd table, row 11, column 5)

B1: Y61-scGene3 (Y61 scFv Gene3) (scFv)
scFv: MQVQLVQSGGGVVQPGRSLRLSCAASGFTFSSYGMHWVRQAPGKGLEWVAFIRYDGSNKYYADSVKGRFTISRDNSKNTLYLQMKSLRAEDTAVYYCKTHGSHDNWGQGTMVTVSSGGGGSGGGGSGGGGSSYVLTQPPSVSGTPGQRVTISCSGGRSNIGSNTVKWYQQLPGTAPKLLIYGNDQRPSGVPDRFSGSKSGTSASLAITGVQAEDEADYYCQSYDRGTHPALLFGTGTKLTVLGQPKAAPSVTLPQPPVNAGGGSGGGSGGGSEGGGSEGGGSEGGGSEGGGSGGGSGSGDFDYEKMANANKGAMTENADENALQSDAKGKLDSVATDYDYKDDDDKASAI
notes: also called PF-y61scGene3
Percent of Recovery, IL-12 (50 nM selection) [1]: 8%

B2: Y61-scGene3pA (Y61 scFv Gene3PA) (scFv)
scFv: B1 scFv
Percent of Recovery, IL-12 (50 nM selection) [1]: 6.1%

B3: 17/9 scFv (spacer form not stated) (scFv)
scFv: EVQLVESGGGLVQPGRSLRLSCAASGFTFDDYAMHWVRQAPGKGLDWVSAITWNSGHIDYADSVEGRFAVSRDNAKNALYLQMNSLRPEDTAVYYCTKASYLSTSSSLDNWGQGTLVTVSSGGGGSGGGGSGGGGSDIQMTQSPSSLSASIGDRVTITCRASQGIRNYLAWYQQKPGKAPKLLIYAASTLQSGVPSRFSGSGSGTDFTLTISSLQPEDVATYYCQKYNSAPYAFGQGTKVEIKR
% of Recovery, HA (50 nM) selection [2]: 30.5% | % of Recovery, HA (50 nM) selection [3]: 3.3% | % of Recovery, HA (50 nM) selection [4]: 12.4% | % of Recovery, HA (50 nM) selection [5]: 2% | % of Recovery, HA (50 nM) selection [6]: 2.3% | % of Recovery, HA (50 nM) selection [7]: 9.4% | % of Recovery, HA (50 nM) selection [8]: 2.3% | % of Recovery, HA (50 nM) selection [9]: 12.4%

B4: Y61 scFv short (Y61-scCL-short) (scFv)
scFv: MQVQLVQSGGGVVQPGRSLRLSCAASGFTFSSYGMHWVRQAPGKGLEWVAFIRYDGSNKYYADSVKGRFTISRDNSKNTLYLQMKSLRAEDTAVYYCKTHGSHDNWGQGTMVTVSSGGGGSGGGGSGGGGSSYVLTQPPSVSGTPGQRVTISCSGGRSNIGSNTVKWYQQLPGTAPKLLIYGNDQRPSGVPDRFSGSKSGTSASLAITGVQAEDEADYYCQSYDRGTHPALLFGTGTKLTVLGQPKAAPSVTLDYKDDDDKASAI
notes: Human anti-hIL-12 scFv, in vitro translated with 35S-methionine; tested as free protein or as mRNA-scFv (ligated protein), as said under assay; also called Y61-CL-short
Percent of Recovery, IL-12 (50 nM selection) [1]: 21.1%
